Literature values in patent US5925739A, “Pharmaceutical formulation for subcutaneous intramuscular or intradermal administration of factor VIII” (Pharmacia & Upjohn AB, priority 1994, dated 1999).

Details: hemophilia B patients, injected into subcutaneous tissue

**Q.** For “human factor IX: coagulation factor IX, molecular mass of about 56 kDa”, which “transport into the circulation” value is on record?
**A.** The value was “poorly and very slowly transported into the circulation”.
